The source of these data is patent US9395368B2, “Methods, agents and peptides for inducing an immune response to matrix metalloproteinase-2 expressing tumors” (New York University, priority 2010, dated 2016).

This assay deals with IFNβ production by DCs. Kind of assay: IFNβ levels produced by poly(I:C)-matured DCs (ELISA). It counts as cell-based, human. As to conditions: poly(I:C)-matured DCs pre-exposed, 16 h. As for the experimental part: Immature DCs were incubated with MMP-2 (0.5 μg/mL or 5 μg/mL) and poly(I:C)-matured 1 h later. IL-12 levels were measured 16 h later. (A) Results are represented as a percentage of IL-12p70 levels, measured by CBA, produced when DCs were incubated with poly(I:C) only (n=11). (B) For intracellular staining of IL-12p35 and IL-12p40 chains, Brefeldin A was added 4 h after poly(I:C) activation and cells were stained after an additional 12 h incubation. Numbers in the upper right quadrants are the percentages of each population for a representative donor (n=3). (C,D) Immature DCs were incubated with MMP-2 for 1 h (5 μg/mL) before poly(I:C) maturation. Intracellular staining of phosphorylated (Y701) STAT1 (P-STAT1) was performed 3 h later. […] IFNβ levels were measured by ELISA 16 h later. […] IFNAR1 protein expression was detected the next day by Western blot analysis using a rabbit monoclonal antibody. […]
Enzyme-linked immunosorbent assay Activation of T cell clones (10,000 cells/100 μL/well), polyclonal T cell populations (100,000 cells/100 μL/well), DCs (50,000 cells/100 μL/well) and basophils (10,000 cells/100 μL/well) was determined by ELISA. IFNγ (BioSource), TNFα (BioSource), IL-4 (BioSource), TSLP (Quantikine; R&D Systems), IFNβ (VeriKine; PBL interferon source) and MCP-3 (DuoSet; R&D Systems) contents in supernatants were measured according to the manufacturer's instructions.

B1: active MMP-2: Purified human MMP-2 (mixture of the proenzyme (50%) and the active form (50%)) purchased from Biomol (protein, listed as Homo sapiens)
chain: MEALMARGALTGPLRALCLLGCLLSHAAAAPSPIIKFPGDVAPKTDKELAVQYLNTFYGCPKESCNLFVLKDTLKKMQKFFGLPQTGDLDQNTIETMRKPRCGNPDVANYNFFPRKPKWDKNQITYRIIGYTPDLDPETVDDAFARAFQVWSDVTPLRFSRIHDGEADIMINFGRWEHGDGYPFDGKDGLLAHAFAPGTGVGGDSHFDDDELWTLGEGQVVRVKYGNADGEYCKFPFLFNGKEYNSCTDTGRSDGFLWCSTTYNFEKDGKYGFCPHEALFTMGGNAEGQPCKFPFRFQGTSYDSCTTEGRTDGYRWCGTTEDYDRDKKYGFCPETAMSTVGGNSEGAPCVFPFTFLGNKYESCTSAGRSDGKMWCATTANYDDDRKWGFCPDQGYSLFLVAAHEFGHAMGLEHSQDPGALMAPIYTYTKNFRLSQDDIKGIQELYGASPDIDLGTGPTPTLGPVTPEICKQDIVFDGIAQIRGEIFFFKDRFIWRTVTPRDKPMGPLLVATFWPELPEKIDAVYEAPQEEKAVFFAGNEYWIYSASTLERGYPKPLTSLGLPPDVQRVDAAFNWSKNKKTYIFAGDKFWRYNEVKKKMDPGFPKLIADAWNAIPDNLDAVVDLQGGGHSYFFKGAYYLKLENQSLKSVKFGSIKSDWLGC
On to B1, for which the IFNβ levels result was “decreased levels”.
